Substrate: NC(=O)C[C@H](N)C(=O)O
Assay: purified protein
Assay type: biochemical, Thermococcus sibiricus
Settings: native unconjugated enzyme, 25 mM borate buffer, pH 8.5 (Table 4; Figure 5 legend says pH 7.5, Methods pH 9.3), 85 °C

B1: TsA (L-asparaginase from Thermococcus sibiricus) (Thermococcus sibiricus MM 739) (protein)
chain: MKKLLIIGTGGTIASAKTEQGYKSVLKIDEILKLAKIKLENGYKIDSTNIMNIDSTLIHPEDWEIIAKEVFKALDDYDGIIITHGTDTLAYTASMLSFMIKNPNKPIVLTGSMLPITENGSDAPRNIRTAIKFAMEDVAGVFVAFMDKIMLGCRTSKVRTLGLNAFMSINYPDVAYVKGEKILYNIPKEKFQPNGSPELDTKYEPRVVVLRVTPGLGGEIIDAVLDAGYKGIVLEGYGAGGLPYRKSNLLSKIKEITPKIPVIMTTQALYDGVDMRKYEVGRKALETGIIPAKDMTKEATITKLMWALGHTKDVEKIREIMHTNYVNEIKS
notes: synthetic gene in pET-28a(+), E. coli BL21(DE3), SP-Sepharose purified (no tag mentioned); gene span 996 nt
For B1, the Km was 6.1 ± 1.3 mM and the Vmax was 470 µmol/min/mg.

— paper PMC11050321, “L-Asparaginase Conjugates from the Hyperthermophilic Archaea Thermococcus sibiricus with Improved Biocatalytic Properties” (International Journal of Molecular Sciences, 2024)
